In article PMC12051234, “NrdR in Streptococcus and Listeria spp.: DNA Helix Phase Dependence of the Bacterial Ribonucleotide Reductase Repressor” (Molecular Microbiology, 2024):
Values joined by “and” are separate entries in the source; they are usually repeats but may differ in a detail not shown here. Equal values may be shown once.

B1: Streptococcus pneumoniae NrdR (natural protein, Streptococcus pneumoniae TIGR4, UniProt P67318 1-157, looked up)
chain: MRCPKCGATKSSVIDSRQAEEGNTIRRRRECDECQHRFTTYERVEERTLVVVKKDGTREQFSRDKIFNGIIRSAQKRPVSSDEINMVVNRIEQKLRGRNENEIQSEDIGSLVMEELAELDEITYVRFASVYRSFKDVSELESLLQQITQSSKKKKER
notes: NrdR, transcriptional repressor of ribonucleotide reductase genes, S. pneumoniae TIGR4; the nrdR gene (SP_1713, AAK75791) cloned in pET30a(+) between NdeI and XhoI; molecular mass including the hexa-histidine tag 19.4 kDa; Oligomeric state depends on the nucleotides added (none, ATP, dATP + ATP); also called SpnNrdR; source: E. coli BL21(DE3), purified (HisTrap FF Ni-Sepharose, desalting); not …
B2: Listeria monocytogenes NrdR (natural protein, UniProt B8DHI6 1-154, looked up)
chain: MRCPTCQYNGTRVVDSRPADDGNSIRRRRECEKCGFRFTTFEKVEESPLIVVKKDGAREEFAREKVRRGLIRACEKRPVSAEQIEEIVNEVERELRNIGDSEIASDLIGEKVMNKLANLDEVAYVRFASVYRQFKDISVFVEELKDLMEKNKDR
notes: NrdR, transcriptional repressor of ribonucleotide reductase genes, L. monocytogenes serotype 1/2a str; S10403S; molecular mass including the hexa-histidine tag 19 kDa; Oligomeric state depends on the nucleotides added; also called LmoNrdR; L. monocytogenes NrdR; source: E. coli BL21(DE3), purified (HisTrap FF Ni-Sepharose, desalting); not shown: His6, C-terminal, kept

Tests used:
[1] = biological target: the molecule itself; assay: SEC; SpnNrdR 50 uM incubated with 0.5 mM ATP, 0.5 mM dATP and 2.5 mM MgCl; ATP and dATP 0.1 mM each in the buffer; Superdex S200 Increase, 4 C; 25 mM HEPES pH 7.2, 2.5 mM MgCl2, 15% glycerol, 250 mM NaCl, 0.1 mM TCEP
[2] = biological target: the molecule itself; assay: SEC; LmoNrdR 50 uM incubated with 1 mM ATP and 5 mM MgCl; 0.2 mM ATP in the buffer; Superdex S200 Increase, 4 C; 25 mM Bis-Tris Propane pH 6.5, 5% glycerol, 5 mM MgCl2, 100 mM KCl, 1 mM DTT
[3] = biological target: the molecule itself; assay: SEC; LmoNrdR 50 uM, no nucleotides in protein or buffer (apo); Superdex S200 Increase, 4 C; 25 mM Bis-Tris Propane pH 6.5, 5% glycerol, 5 mM MgCl2, 100 mM KCl, 1 mM DTT; size from a calibration curve of globular standards
[4] = biological target: the molecule itself; assay: SEC; LmoNrdR 50 uM incubated with dATP + ATP and 5 mM MgCl; 0.1 mM of each nucleotide in the buffer; Superdex S200 Increase, 4 C; 25 mM Bis-Tris Propane pH 6.5, 5% glycerol, 5 mM MgCl2, 100 mM KCl, 1 mM DTT

Row | Protein | stoichiometry N [1] | stoichiometry N [2] | stoichiometry N [3] | stoichiometry N [4]
1 | B1 | 4 |  |  | 
2 | B2 |  | 8 | 2 and 4 | 4
